Assay [1] has as its target HA-tagged human Neuropeptide S receptor, D105A mutant in the N107 background (human) (UniProt Q6W5P4).
Assay [2] concerns the target T1, HA-tagged human Neuropeptide S receptor, N107 variant (human, UniProt Q6W5P4 1-371).
T1 sequence (looked up): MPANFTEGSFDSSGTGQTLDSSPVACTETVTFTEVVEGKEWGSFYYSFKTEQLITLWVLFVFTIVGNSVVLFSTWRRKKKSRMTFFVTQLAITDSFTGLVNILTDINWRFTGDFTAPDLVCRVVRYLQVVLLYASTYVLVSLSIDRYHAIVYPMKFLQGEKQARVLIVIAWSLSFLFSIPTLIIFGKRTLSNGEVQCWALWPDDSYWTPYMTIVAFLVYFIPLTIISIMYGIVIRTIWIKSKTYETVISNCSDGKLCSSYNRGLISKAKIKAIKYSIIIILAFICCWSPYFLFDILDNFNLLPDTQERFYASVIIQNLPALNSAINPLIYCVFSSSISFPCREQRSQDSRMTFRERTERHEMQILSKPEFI
The assay can be described thus: cell-based or functional assay.

Assay [3] has as its target T2, HA-tagged human Neuropeptide S receptor, I107 variant (human, UniProt Q6W5P4 1-371, N107I).
T2 sequence (looked up): T1 sequence (looked up) with N107I
Briefly: cell-based or functional assay.

Assay [4] concerns the target T3, HA-tagged human Neuropeptide S receptor, N101A mutant in the N107 background (human, UniProt Q6W5P4 1-371, N101A).
T3 sequence (looked up): T1 sequence (looked up) with N101A
The assay can be described thus: cell-based or functional assay.

The target of assay [5] is T4, HA-tagged human Neuropeptide S receptor, D105A mutant in the N107 background (human, UniProt Q6W5P4 1-371, D105A).
T4 sequence (looked up): T1 sequence (looked up) with D105A
Briefly: cell-based or functional assay.

Assay [6] addresses T1, HA-tagged human Neuropeptide S …. Briefly: radioligand binding.
Assay [7] has as its target T4, HA-tagged human Neuropeptide S …. Briefly: radioligand binding.

Substitutions are numbered along the chain they refer to.

For the molecule human NPS 1-18 (peptide), the EC50 of receptor activation by human NPS 1-18 (unpublished data) in assay [1] was found to be 1000 nM.

Usually IC50 stands for the midpoint of a concentration-inhibition curve. A low value points to inhibition by little substance. As to SFRNGVGTGMKKTSFQRAKS (peptide, UniProt P0C0P6 70-89, looked up) [Neuropeptide S (human)], in assay [2], the “EC50 of NPS-mediated mobilisation of intracellular Ca2+ (FLIPR), stable clone #2” value is 25 nM and the “EC50 of NPS-mediated mobilisation of intracellular Ca2+ (FLIPR), stable clone #4” value worked out at 4.9 nM. Besides, in assay [3], the “EC50 of NPS-mediated mobilisation of intracellular Ca2+ (FLIPR), stable clone #4” value turned out to be 1.6 nM and the “EC50 of NPS-mediated mobilisation of intracellular Ca2+ (FLIPR), stable clone #5” value came out at 1.7 nM. For the same molecule, in assay [4], the “EC50 of NPS-mediated mobilisation of intracellular Ca2+ (FLIPR), stable clone #2” value came to 12 nM and the “EC50 of NPS-mediated mobilisation of intracellular Ca2+ (FLIPR), stable clone #6” value stood at 42 nM. Further, the “EC50 of receptor activation by human NPS 1-20 (unpublished data)” value in assay [5] was roughly 1000 nM. Also, in assay [6], the IC50 stood at 8.7 ± 1.9 nM. For the same molecule, the IC50 in assay [7] is greater than 200 nM.

The values are drawn from publication PMC2814945 (Peptides, 2009).
